According to publication doi:10.1101/2025.08.29.673013:
pIC50, pKd: −log10 of the molar value.

Experiments:
[1] = molecular target: Biotinylated SUMO [SUMO: Q12306]; assay: BLI
[2] = molecular target: Full-length human PARP2 isoform 2 (amino acids 1–570) (human) (UniProt Q9UGN5); assay: BLI
[3] = molecular target: N-terminal region of PARP2 (NTR; aa 1–80) (human) (UniProt Q9UGN5); assay: ITC
[4] = molecular target: Full-length human PARP2 isoform 2 (amino acids 1–570) (human) (UniProt Q9UGN5); assay: ITC
[5] = molecular target: NTR-WGR construct of PARP2 (aa 1–205) (human) (UniProt Q9UGN5); assay: ITC
[6] = molecular target: WGR-CAT construct of PARP2 (aa 81–570) (human) (UniProt Q9UGN5); assay: ITC

pKd [1] | koff [1] | kon [1] | pIC50 [2] | pKd [3] | pKd [4] | pKd [5] | pKd [6] | Substance
4.18 | 0.301 s⁻¹ | 4500 M⁻¹ s⁻¹ |  |  |  |  |  | Full-length human PARP2 isoform 2 (amino acids 1–570) (from UniProt Q9UGN5-2 1-570) (enzyme)
 |  |  | 6.09 | 3.70 | 4.34 | 3.90 | 3.00 | Small ubiquitin like modifier (SUMO) (from UniProt Q12306 1-101) (natural protein)
